In patent publication US8058228B2, “Leptin peptide antagonists” (Boston Biomedical Research Institute, priority 2004, dated 2011):

Biological target: T1, OB-R (Homo sapiens, UniProt P48357)
T1 construct: After confirming via Western that the primary EEC and ESC and endometrial cell lines utilized herein had OB-R; endogenous in cells; host or cells: primary human EEC and ESC; Ishikawa (ECACC 9832301) and HES cell lines
T1 sequence (P48357 22-1165): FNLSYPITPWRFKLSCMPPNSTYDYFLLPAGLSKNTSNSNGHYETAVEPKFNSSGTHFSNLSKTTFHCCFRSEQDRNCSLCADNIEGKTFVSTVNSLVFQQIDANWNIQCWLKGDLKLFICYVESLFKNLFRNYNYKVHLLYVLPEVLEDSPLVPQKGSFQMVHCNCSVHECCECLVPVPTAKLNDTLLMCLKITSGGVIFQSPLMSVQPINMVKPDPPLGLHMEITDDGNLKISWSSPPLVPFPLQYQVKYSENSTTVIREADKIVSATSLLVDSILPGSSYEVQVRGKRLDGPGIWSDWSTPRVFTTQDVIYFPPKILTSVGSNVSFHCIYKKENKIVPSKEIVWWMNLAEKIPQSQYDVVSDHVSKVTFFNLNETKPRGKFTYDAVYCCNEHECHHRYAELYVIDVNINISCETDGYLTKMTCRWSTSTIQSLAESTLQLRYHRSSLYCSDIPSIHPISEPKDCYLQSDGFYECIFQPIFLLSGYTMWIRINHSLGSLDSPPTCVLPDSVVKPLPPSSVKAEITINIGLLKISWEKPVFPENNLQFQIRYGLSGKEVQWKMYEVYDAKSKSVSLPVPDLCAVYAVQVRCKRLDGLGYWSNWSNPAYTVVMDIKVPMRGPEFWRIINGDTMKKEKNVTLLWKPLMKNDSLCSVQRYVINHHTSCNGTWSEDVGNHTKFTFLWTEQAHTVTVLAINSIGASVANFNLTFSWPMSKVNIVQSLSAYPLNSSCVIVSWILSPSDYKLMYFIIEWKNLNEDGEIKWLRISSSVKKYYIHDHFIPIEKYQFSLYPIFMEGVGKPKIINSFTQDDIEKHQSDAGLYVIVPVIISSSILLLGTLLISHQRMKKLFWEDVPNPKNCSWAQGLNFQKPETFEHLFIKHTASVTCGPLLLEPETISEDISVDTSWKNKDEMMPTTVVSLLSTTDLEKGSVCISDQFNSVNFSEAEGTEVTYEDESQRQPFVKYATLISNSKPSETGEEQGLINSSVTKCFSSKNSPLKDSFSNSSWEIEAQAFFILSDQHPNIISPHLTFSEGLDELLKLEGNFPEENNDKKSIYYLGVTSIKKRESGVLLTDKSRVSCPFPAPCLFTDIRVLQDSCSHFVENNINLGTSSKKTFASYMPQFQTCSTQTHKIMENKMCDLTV
Test: LIF levels in conditioned medium of human endometrial cells (ELISA)
Type: cell-based
Conditions: for effect on leptin-induced LIF levels in conditioned medium: leptin 3 nM plus inhibitor or control
Experimental: Primary human endometrial cells (ESC and EEC) were cultured for 5-9 days in DMEM-F12 medium containing 5% fetal bovine serum (FBS), 5 μg/ml insulin, 1% amphopthericin B, 100 μg/ml streptomycin and 100 U/ml penicillin until they were 80% confluent. Two types of endometrial epithelial cell lines, HES (originally derived from a benign proliferative endometrium) and Ishikawa (human endometrial epithelial adenocarcinoma, ECACC 9832301, Wiltshire, England) were cultured under the same conditions described above. The cells were washed twice with 100 mM phosphate saline buffer (PBS), pH 7.2 and cultured for additional 2 days in the same medium but without FBS (basal medium). Cells were washed as described before and cultured in basal medium containing leptin (0, 3, 10 or 62 nM) or IL-1β (0.6, 3 and 10 nM).
The anti-OB-R antibody (10 and 20 μg/ml) and LPA-2, a specific inhibitor of OB-R (3, 120, 300 nM or 30 μM) were used to assess whether leptin-induced effects were regulated primarily by the OB-R. Non-specific species-matched IgGs to the OB-R antibody and a scrambled version of LPA-2 (LPA-2Sc) served as negative controls (Gonzalez and Leavis, Endocrine 21: 185-195 (2003)). Inhibitors of IL-1R were used (monoclonal antibody anti-IL-1R tl and IL-1Ra) to assess whether leptin activated IL-1 induced signaling pathways or just activated similar components responsible for LIF/LIF-R expression. Treatment with the cytokine, inhibitor or the two combined was implemented for 5, 15, 30 and 60 min, and 24 and 48 h. The cells were prepared for Western blot analysis. The conditioned media was collected, lyophilized and stored at −80° C. until analysis for LIF, IL-1β and IL-1Ra by ELISA could be performed. Duplicate wells were run for each treatment and the experiments repeated at least three times with different cell preparations.
Conditioned media from cells cultured under the experimental conditions described above were used to quantify the secretion of LIF, IL-1β and IL-1Ra by ELISA (Quantikine®, R&D Systems). The experiments were replicated three times and standards, controls, and samples were assayed in duplicate. Cytokine concentrations as determined by ELISA were within the range of the standard curve and were expressed in pg/ml/mg protein. The intra- and interassay coefficients of variation were between 5-8% and 8.5-10%, respectively. The lowest detectable concentration of each cytokine by ELISA was LIF (9 pg/ml), IL-1 (0.11 pg/ml) and IL-1Ra (15.6 pg/ml). These concentrations are similar to those reported by the manufacturer. LIF-ELISA is reported by the manufacturer to have a sensitivity of less than 8 pg/ml for both natural and recombinant human LIF and 100% specificity (no significant cross-reactivity or interference with a diversity of human and mouse cytokines and growth factors was observed). The performance characteristics for human IL-1β and IL-1Ra ELISAs reported are: 100% specificity, sensitivity 0.1 pg/ml and 14 pg/ml, respectively.

| effect on leptin-induced LIF levels in conditioned medium (Ishikawa cells) | LIF levels after leptin (HES cells) | LIF levels in conditioned medium after leptin (Ishikawa cells, leptin 3 nM) | LIF levels after leptin (primary EEC, 24 h, dose-dependent) | Substance |
| --- | --- | --- | --- | --- |
| reduced LIF levels | – | – | – | SRNVIQISNDLENLRDLLHVLAFSKS [LPA-2, 26 amino acid peptide, residues 70-95 of helix III of the human leptin molecule; leptin peptide antagonist] |
| not different | – | – | – | VAEVLNRSDLIQRISFSLDLNNSKLH [LPA-2Sc, scrambled version of LPA-2, negative control, reference compound] |
| – | No response | increased the levels of LIF | increased level of LIF | leptin: human recombinant leptin (R&D Systems), OB-R ligand used as stimulus |
